Paper doi:10.1101/2025.07.01.662498, “Automodification of N-terminal serine residues in PARP2 impacts PARP2 release from DNA damage sites”

Molecular target: PARP2 WT (human, UniProt Q9UGN5 1-583)
Assay: fluorescence polarization; HPF1 not mentioned for this value; 10 mM HEPES pH 8.0, 150 mM NaCl, 0.1 mg/ml BSA, 0.1 mM TCEP, 0.1 mM EDTA, 25 C (FP)
Details: protein: recombinant; tags: His6-TEV, tag cleaved; nicked dumbbell: two hairpins with TTTT loops, one strand

Chain of PARP2 WT (Q9UGN5 whole entry): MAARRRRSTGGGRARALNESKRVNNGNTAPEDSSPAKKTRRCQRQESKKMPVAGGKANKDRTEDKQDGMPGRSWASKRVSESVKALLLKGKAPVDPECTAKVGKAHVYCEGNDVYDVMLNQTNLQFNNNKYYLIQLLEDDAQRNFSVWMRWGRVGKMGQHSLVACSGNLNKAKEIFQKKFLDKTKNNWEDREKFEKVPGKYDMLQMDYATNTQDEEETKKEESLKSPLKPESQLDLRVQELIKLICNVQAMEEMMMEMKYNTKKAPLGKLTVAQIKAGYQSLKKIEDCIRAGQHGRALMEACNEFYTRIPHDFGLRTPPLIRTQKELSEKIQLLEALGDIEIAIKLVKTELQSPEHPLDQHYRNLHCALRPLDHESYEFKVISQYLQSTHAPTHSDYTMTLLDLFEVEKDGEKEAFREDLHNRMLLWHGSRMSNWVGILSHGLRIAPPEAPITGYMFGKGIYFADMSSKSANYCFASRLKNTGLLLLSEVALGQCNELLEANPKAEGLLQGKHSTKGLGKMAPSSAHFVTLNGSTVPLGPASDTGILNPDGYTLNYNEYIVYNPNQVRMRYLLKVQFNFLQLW

B1: fluorescein-labelled nicked dumbbell DNA, 5'-phosphate (structured_DNA)
DNA: GGAAGTCTTTTGACTTCCTCGAAGCTTTTGCTTCGA
modifications: 5'-phosphate
B1 gave a Kd of 4.8 ± 2.9 nM.
